# Experimental data: publication PMC11779849
# Legend:
# [1] = biological target: human P-cadherin K14E mutant ectodomain (EC1-5) (human); assay: single-molecule AFM force spectroscopy; as the -CQY experiment but with 40 nM CQY684 Fab in the buffer (+CQY); Pcad EC1-5 on cantilever and substrate; 1 µm/s; Tris buffer pH 7.5 with 2.5 mM CaCl2
# [2] = biological target: human P-cadherin K14E mutant ectodomain (EC1-5) (human); assay: single-molecule AFM force spectroscopy; biotinylated Pcad EC1-5 held by streptavidin on PEG tethers on both the cantilever and the glass substrate; no CQY684 (-CQY); tip retracted at 1 µm/s; Tris buffer pH 7.5, 10 mM Tris-HCl, 100 mM NaCl, 10 mM KCl, 2.5 mM CaCl2; peak forces from Gaussian fits of unbinding force histograms
# [3] = biological target: human P-cadherin W2A mutant ectodomain (EC1-5) (human); assay: single-molecule AFM force spectroscopy; as the -CQY experiment but with 40 nM CQY684 Fab in the buffer (+CQY); Pcad EC1-5 on cantilever and substrate; 1 µm/s; Tris buffer pH 7.5 with 2.5 mM CaCl2
# [4] = biological target: human P-cadherin W2A mutant ectodomain (EC1-5) (human); assay: single-molecule AFM force spectroscopy; biotinylated Pcad EC1-5 held by streptavidin on PEG tethers on both the cantilever and the glass substrate; no CQY684 (-CQY); tip retracted at 1 µm/s; Tris buffer pH 7.5, 10 mM Tris-HCl, 100 mM NaCl, 10 mM KCl, 2.5 mM CaCl2; peak forces from Gaussian fits of unbinding force histograms
peak unbinding force (with 40 nM CQY684) [1] [pN],peak unbinding force [2] [pN],"peak unbinding force, first Gaussian (with 40 nM CQY684) [3] [pN]","peak unbinding force, second Gaussian (with 40 nM CQY684) [3] [pN]",peak unbinding force [4] [pN],Substance
31,33.1,,,,human P-cadherin K14E mutant ectodomain (EC1-5) (domain or fragment)
,,35.1,55.8,24.5,human P-cadherin W2A mutant ectodomain (EC1-5) (domain or fragment)
